Results published in patent publication US20030157553A1 (published 2003).
Positions count from the first letter of the chain named.

Biological target: T1, phosphorylated β2-adrenergic receptor (agonist-activated) (UniProt P07550 1-413, limits assumed, phosphorylated (sites and kinase not stated for the experiment))
T1 construct: Phosphorylated form of the purified, reconstituted β2AR; also called P-β2AR
Assay: agonist affinity shift assay, [125I]iodopindolol displacement by agonist with saturating (1 µM) purified arrestin, P-β2AR
Experimental: Agonist Affinity ShiftAssay—P-β₂AR or β₂AR (10-15 fmol/assay) was incubated in 0.25 ml of 10 mM Tris-HCl, pH 7.4, 100 mM NaCl (buffer A) containing 0.1 mg/ml bovine serum albumin in the presence of 65-75 fmol of [¹²⁵I] iodopindolol (NEN Life Science Products) and the indicated concentrations of arrestins and agonists for 60 min at 22° C. Samples were then cooled on ice and loaded at 4° C. onto 2 ml of Sephadex G-50 columns. Receptor-containing liposomes with bound radioligand were eluted with buffer A (between 0.6 and 1.5 ml), and radioactivity was quantitated in a liquid scintillation counter. Nonspecific binding was determined in the presence of 10 μM alprenolol. All experiments were repeated two to three times, and data are presented as means ±S.D.
It was recently reported that arrestin-receptor complex is similar to G protein-receptor complex in two respects: agonists have higher affinity for arrestin-receptor complex than for receptor alone, and only a fraction of the receptors forms such a high agonist affinity complex (HAC) even at saturating concentrations of arrestin (Gurevich et al. (1997) supra). The maximum percentage of the receptor in HAC gives a good estimate of the propensity of a given arrestin protein to bind tightly to the receptor (arrestin competency) Gurevich et al. (1997) supra)). […]

B1: wild type bovine β-arrestin (other)
chain: MGDKGTRVFKKASPNGKLTVYLGKRDFVDHIDLVEPVDGVVLVDPEYLKERRVYVTLTCAFRYGREDLDVLGLTFRKDLFVANVQSFPPAPEDKKPLTRLQERLIKKLGEHAYPFTFEIPPNLPCSVTLQPGPEDTGKACGVDYEVKAFCAENLEEKIHKRNSVRLVIRKVQYAPERPGPQPTAETTRQFLMSDKPLHLEASLDKEIYYHGEPISVNVHVTNNTNKTVKKIKISVRQYADICLFNTAQYKCPVAMEEADDTVAPSSTFCKVYTLTPFLANNREKRGLALDGKLKHEDTNLASSTLLREGANREILGIIVSYKVKVKLVVSRGGLLGDLASSDVAVELPFTLMHPKPKEEPPHREVPEHETPVDTNLIELDTNDDDIVFEDFARQRLKGMKDDKEEEEDGTGSPRLNDR
notes: Full-length wild type from construct pBARR; also called wild type β-arrestin; bovine β-arrestin 1A
- percentage of receptor in high agonist affinity complex (HAC): 31%

B2: β-arrestin-(Arg169→Glu) (other)
chain: B1 chain with R169E
notes: Bovine β-arrestin point mutant made in pBARR
- percentage of receptor in high agonist affinity complex (HAC): 52%
